The text below walks through data of article PMC10403546.

For assay [1], the target named is X18 UFO (CRF01_AE Env), uncleaved prefusion-optimized Env trimer of isolate BJOX018000.e12 (HIV-1). Briefly: cryo-EM structure.
For assay [2] the target is unchanged. As to the kind of experiment: negative stain EM.
The target in assay [3] is X16 UFO (CRF07_BC Env), uncleaved prefusion-optimized Env trimer of isolate BJOX016000.e15 (HIV-1). Briefly: cryo-EM structure.

By stoichiometry N is commonly meant a count of units in the complex or per binding partner. Regarding “X18 UFO (CRF01_AE Env), uncleaved prefusion-optimized Env trimer of isolate BJOX018000.e12 (natural protein)”, the stoichiometry N in assay [1] was determined as 3. In assay [2], this substance came in with a percentage of intact Env trimers, 8ANC195-bound, over 18 h of 90%; a percentage of intact Env trimers, F6-bound, 1 h of 83%; a percentage of intact Env trimers, F6-bound, 7 h of 48%.
Substance “X16 UFO (CRF07_BC Env), uncleaved prefusion-optimized Env trimer of isolate BJOX016000.e15 (natural protein)” yielded a stoichiometry N in assay [3] of 3.
